Consider one substance from patent US20240391971A1.

For this assay, the target named is human GFRAL (UniProtKB-Q6UXV0) (human) (UniProt Q6UXV0). Kind of assay: cell-based or functional assay.
human GFRAL, sequence (Q6UXV0 19-394): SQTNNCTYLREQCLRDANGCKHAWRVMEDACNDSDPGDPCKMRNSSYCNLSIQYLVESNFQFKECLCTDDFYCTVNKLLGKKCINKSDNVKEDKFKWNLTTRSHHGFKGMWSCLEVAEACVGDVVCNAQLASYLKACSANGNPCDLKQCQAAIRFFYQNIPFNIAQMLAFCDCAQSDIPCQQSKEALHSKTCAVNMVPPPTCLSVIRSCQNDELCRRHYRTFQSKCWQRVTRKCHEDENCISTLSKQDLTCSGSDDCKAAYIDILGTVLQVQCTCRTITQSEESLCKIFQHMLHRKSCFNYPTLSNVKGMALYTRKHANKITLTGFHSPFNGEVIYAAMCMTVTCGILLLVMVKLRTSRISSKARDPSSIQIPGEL

Take “native GDF15 (ACROBiosystems, GD5-H5149) (from UniProt Q99988 195-308) (ligand)”: the Relative activity ratio (native GDF15 EC50: Fc-GDF15 construct EC50), ERK1/2 phosphorylation HTRF in HEK293T cells expressing human GFRAL and RET is 1.
